Substitutions are numbered along the chain they refer to.
Columns and labels:
human CD9 [1] = target: T1, human CD9 (human, UniProt P21926 2-228); test: flow cytometry on melanoma WM852 cells, antibody at 20 micrograms/mL
T1 construct: whole, on cells; Endogenous CD9; It stood on human cell lines (FACS, cell ELISA) and in tissue sections (IHC); For immunoprecipitation and Western blot it was solubilised from BxPC-3 cell lysate (band of about 25 kDa); also called AR40A746.2.3 antigen; IDAC 141204-01 antigen
T1 sequence (looked up): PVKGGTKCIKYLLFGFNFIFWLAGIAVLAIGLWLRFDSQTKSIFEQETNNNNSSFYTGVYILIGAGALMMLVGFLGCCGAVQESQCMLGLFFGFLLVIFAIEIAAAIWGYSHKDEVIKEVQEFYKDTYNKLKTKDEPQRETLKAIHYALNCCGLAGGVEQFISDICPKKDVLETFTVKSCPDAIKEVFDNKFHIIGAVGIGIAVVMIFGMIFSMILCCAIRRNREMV
Procedure: (§1) All cell lines were obtained from the American Type Tissue Collection (ATCC, Manassas, Va.) except for the melanoma cell lines WM9, WM35, WM164, WM451, WM537, WM852, WM983, WM1205 and WM1232 which were obtained from Dr. David Hogg (University of Toronto, Toronto, Canada).
(§2) Cells were prepared for FACS by initially washing the cell monolayer with DPBS (without Ca⁺⁺ and Mg⁺⁺). Cell dissociation buffer (Invitrogen, Burlington, ON) was then used to dislodge the cells from their cell culture plates at 37° C. After centrifugation and collection, the cells were resuspended in DPBS containing MgCl₂ CaCl₂ and 2 percent fetal bovine serum at 4° C. (staining media) and counted, aliquoted to appropriate cell density, spun down to pellet the cells and resuspended in staining media at 4° C. in the presence of the test antibody (AR40A746.2.3) or control antibodies (isotype control, anti-EGFR). Isotype control and the test antibody were assessed at 20 micrograms/mL whereas anti-EGFR was assessed at 5 micrograms/mL on ice for 30 minutes. Prior to the addition of Alexa Fluor 546-conjugated secondary antibody the cells were washed once with staining media. […] Flow cytometric acquisition of the cells was assessed by running samples on a FACSarray™ using the FACSarray™ System Software (BD Biosciences, Oakville, ON). […]

human CD9 [2] = target: T1, human CD9; test: flow cytometry on colon cancer DLD-1 cells, antibody at 20 micrograms/mL
Procedure: as §1, §2

human CD9 [3] = target: T1, human CD9; test: flow cytometry on prostate cancer DU-145 cells, antibody at 20 micrograms/mL
Procedure: (§3) David Hogg (University of Toronto, Toronto, Canada).
(§4) Cells were prepared for FACS by initially washing the cell monolayer with DPBS (without Ca⁺⁺ and Mg⁺⁺). Cell dissociation buffer (Invitrogen, Burlington, ON) was then used to dislodge the cells from their cell culture plates at 37° C. After centrifugation and collection, the cells were resuspended in DPBS containing MgCl₂ CaCl₂ and 2 percent fetal bovine serum at 4° C. (staining media) and counted, aliquoted to appropriate cell density, spun down to pellet the cells and resuspended in staining media at 4° C. in the presence of the test antibody (AR40A746.2.3) or control antibodies (isotype control, anti-EGFR). Isotype control and the test antibody were assessed at 20 micrograms/mL whereas anti-EGFR was assessed at 5 micrograms/mL on ice for 30 minutes. Prior to the addition of Alexa Fluor 546-conjugated secondary antibody the cells were washed once with staining media. The Alexa Fluor 546-conjugated antibody in staining media was then added for 30 minutes at 4° C. The cells were then washed for the final time and resuspended in fixing media (staining media containing 1.5 percent paraformaldehyde). Flow cytometric acquisition of the cells was assessed by running samples on a FACSarray™ using the FACSarray™ System Software (BD Biosciences, Oakville, ON). […]
(§5) FIG. 2 presents the mean fluorescence intensity fold increase above isotype control. […]

human CD9 [4] = target: T1, human CD9; test: flow cytometry on breast cancer MDA-MB-231 cells, antibody at 20 micrograms/mL
Procedure: as §1, §2

[5] = target: T2, AR40A746.2.3 antigen (CD9) in rhesus monkey normal tissues (rhesus monkey, UniProt I0FWF4 2-228); test: IHC on normal tissue micro arrays, 5 micrograms/mL
T2 construct: whole, on cells; also called rhesus monkey CD9
T2 sequence: T1 sequence (looked up) with N150D, F175L, V177I
Procedure: (§6) IHC studies were conducted to evaluate the cross reactivity of AR40A746.2.3 to non human species tissues in order to find suitable preclinical toxicology model(s). All tissues used were formalin fixed paraffin embedded. The binding of AR40A746.2.3 to 8 normal tissues of cynomolgus and rhesus monkey (Biochain, CA, USA) and 10 normal tissues of rabbit, rat, mouse and sheep (Zymed laboratories Inc, CA, USA) was performed using tissue micro arrays. Previous experiments were conducted to optimize the IHC binding conditions of the antibody. Tissue sections were deparaffinized by drying in an oven at 58° C. for 1 hour and dewaxed by immersing in xylene 5 times for 4 minutes each in Coplin jars. Following treatment through a series of graded ethanol washes (100 to 75 percent) the sections were re-hydrated in water. The slides were immersed in 10 mM citrate buffer at pH 6 (Dako, Toronto, Ontario) then microwaved at high, medium, and low power settings for 5 minutes each and finally immersed in cold PBS. […] Immunoreactivity of the primary antibodies was detected/visualized with HRP conjugated secondary antibodies as supplied (Dako Envision System, Toronto, Ontario) for 30 minutes at room temperature. […]

human CD9 [6] = target: T1, human CD9; test: flow cytometry on melanoma WM9 cells, antibody at 20 micrograms/mL
Procedure: as §1, §2

human CD9 [7] = target: T1, human CD9; test: flow cytometry on melanoma WM983 cells, antibody at 20 micrograms/mL
Procedure: as §1, §2

human CD9 [8] = target: T1, human CD9; test: flow cytometry on melanoma A2058 cells, antibody at 20 micrograms/mL
Procedure: as §1, §2

human CD9 [9] = target: T1, human CD9; test: flow cytometry on melanoma A375 cells, antibody at 20 micrograms/mL
Procedure: as §1, §2

human CD9 [10] = target: T1, human CD9; test: flow cytometry on melanoma WM164 cells, antibody at 20 micrograms/mL
Procedure: as §1, §2

human CD9 [11] = target: T1, human CD9; test: flow cytometry on colon cancer Lovo cells, antibody at 20 micrograms/mL
Procedure: as §3, §4, §5

human CD9 [12] = target: T1, human CD9; test: flow cytometry on pancreatic cancer BxPC-3 cells, antibody at 20 micrograms/mL
Procedure: as §1, §2

human CD9 [13] = target: T1, human CD9; test: flow cytometry on melanoma WM537 cells, antibody at 20 micrograms/mL
Procedure: as §1, §2

human CD9 [14] = target: T1, human CD9; test: flow cytometry on melanoma WM1232 cells, antibody at 20 micrograms/mL
Procedure: as §1, §2

human CD9 [15] = target: T1, human CD9; test: flow cytometry on non-cancer lung Hs888.Lu cells, antibody at 20 micrograms/mL
Procedure: as §1, §2

human CD9 [16] = target: T1, human CD9; test: flow cytometry on breast cancer MCF-7 cells, antibody at 20 micrograms/mL
Procedure: as §1, §2

human CD9 [17] = target: T1, human CD9; test: flow cytometry on melanoma WM451 cells, antibody at 20 micrograms/mL
Procedure: as §1, §2

human CD9 [18] = target: T1, human CD9; test: flow cytometry on ovarian cancer OVCAR-3 cells, antibody at 20 micrograms/mL
Procedure: as §3, §4, §5

human CD9 [19] = target: T1, human CD9; test: flow cytometry on prostate cancer PC-3 cells, antibody at 20 micrograms/mL
Procedure: as §1, §2

human CD9 [20] = target: T1, human CD9; test: flow cytometry on colon cancer SW1116 cells, antibody at 20 micrograms/mL
Procedure: as §1, §2

[21] = target: T3, AR40A746.2.3 antigen (CD9) in mouse normal tissues (mouse, UniProt P40240 1-226); test: IHC on formalin fixed paraffin embedded normal tissue micro array
T3 construct: whole, on cells; also called mouse CD9
T3 sequence (looked up): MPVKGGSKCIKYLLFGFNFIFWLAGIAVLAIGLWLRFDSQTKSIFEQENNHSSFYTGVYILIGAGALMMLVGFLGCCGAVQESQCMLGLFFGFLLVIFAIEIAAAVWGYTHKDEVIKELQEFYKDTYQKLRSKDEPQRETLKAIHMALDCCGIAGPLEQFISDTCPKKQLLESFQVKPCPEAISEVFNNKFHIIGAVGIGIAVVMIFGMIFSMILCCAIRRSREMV
Procedure: as §6

[22] = target: T4, AR40A746.2.3 antigen (CD9) in rat normal tissues (rat, UniProt P40241 1-226); test: as above
T4 construct: whole, on cells; also called rat CD9
T4 sequence (looked up): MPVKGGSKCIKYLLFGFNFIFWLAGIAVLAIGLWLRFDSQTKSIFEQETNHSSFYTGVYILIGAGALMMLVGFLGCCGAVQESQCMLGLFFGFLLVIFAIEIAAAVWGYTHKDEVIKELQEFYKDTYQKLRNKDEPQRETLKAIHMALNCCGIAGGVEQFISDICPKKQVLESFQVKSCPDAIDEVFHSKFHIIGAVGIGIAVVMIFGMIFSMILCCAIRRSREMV
Procedure: as §6

human CD9 [23] = target: T1, human CD9; test: flow cytometry on non-cancer skin CCD-27sk cells, antibody at 20 micrograms/mL
Procedure: as §1, §2

human CD9 [24] = target: T1, human CD9; test: flow cytometry on melanoma WM35 cells, antibody at 20 micrograms/mL
Procedure: as §1, §2

human CD9 [25] = target: T1, human CD9; test: flow cytometry on colon cancer HT-29 cells, antibody at 20 micrograms/mL
Procedure: as §3, §4, §5

- mean fluorescence intensity fold increase above isotype control (human CD9 [1]): 4.2 fold
- mean fluorescence intensity fold increase above isotype control (human CD9 [2]): 50.5 fold
- mean fluorescence intensity fold increase above isotype control (human CD9 [3]): 30.4 fold
- mean fluorescence intensity fold increase above isotype control (human CD9 [4]): 19.8 fold
- binding result [5]: binds
- mean fluorescence intensity fold increase above isotype control (human CD9 [6]): 4.8 fold
- mean fluorescence intensity fold increase above isotype control (human CD9 [7]): 3.9 fold
- mean fluorescence intensity fold increase above isotype control (human CD9 [8]): 2.7 fold
- mean fluorescence intensity fold increase above isotype control (human CD9 [9]): 4.7 fold
- mean fluorescence intensity fold increase above isotype control (human CD9 [10]): 3.3 fold
- mean fluorescence intensity fold increase above isotype control (human CD9 [11]): 31.6 fold
- mean fluorescence intensity fold increase above isotype control (human CD9 [12]): 18.4 fold
- mean fluorescence intensity fold increase above isotype control (human CD9 [13]): 2.6 fold
- mean fluorescence intensity fold increase above isotype control (human CD9 [14]): 3.4 fold
- mean fluorescence intensity fold increase above isotype control (human CD9 [15]): 20.5 fold
- mean fluorescence intensity fold increase above isotype control (human CD9 [16]): 107 fold
- mean fluorescence intensity fold increase above isotype control (human CD9 [17]): 7 fold
- mean fluorescence intensity fold increase above isotype control (human CD9 [18]): 64.9 fold
- mean fluorescence intensity fold increase above isotype control (human CD9 [19]): 37.8 fold
- mean fluorescence intensity fold increase above isotype control (human CD9 [20]): 13.3 fold
- binding result [21]: no binding (tested: 5 micrograms/mL)
- binding result [22]: no binding (tested: 5 micrograms/mL)
- mean fluorescence intensity fold increase above isotype control (human CD9 [23]): 8.7 fold
- mean fluorescence intensity fold increase above isotype control (human CD9 [24]): 13.8 fold
- mean fluorescence intensity fold increase above isotype control (human CD9 [25]): 80.5 fold
B1: AR40A746.2.3 monoclonal antibody (hybridoma IDAC 141204-01) (antibody, V domains shown)
VH: DVQLQESGPGLVKPSQSLSLTCTVTGYSITSDYAWNWIRQFPGNKLEWMGYISYSGFTNYNPSLKSRISITRDTSKNQFFLQLSSVTTEDTATYFCEGGNYRYSWFPYWGQGTLVTVSA
VL: DIQMTQTTSSLSASLGDRVTISCSASQGISNYLNWYQQKPDGNVKLLIYYTSSLHSGVPSRFSGSGSGTDYSLTISNLEPEDIATYYCQQYSKLPYTFGGGTKLEIKR
notes: also called IDAC 141204-01 antibody; mAR40A746.2.3

— patent publication US20090068182A1 (ARIUS RESEARCH, published 2009)
